Measured values published in US20250361295A1 (ANTENGENE BIOLOGICS, published 2025).
Numbering of substitutions follows the chain as printed.

B1: ch7-B4-C1-C9 (antibody, V domains shown)
VH: EVQLQQSGTELVKPGASVKLSCKASGYTFTNYWMHWVKQRPGQGLEWIGEINPSNGRTNYNEKFKTKATLTVDKSSSTAYMQLSSLTSEDSAVYYCARSTYYGYDWYFDVWGAGTTVTVSS
VL: DIVLTQSPSSMYASLGERVTITCKASQDINSYLSWFQQKPGKSPKTLIYRANRLLDGVPSRFSGGGSGQDYSLTISSLEHEDMGIYYCLQCDEFPHTFGGGTKLEIK
B2: ch42-C8-A12-F3-D11 (antibody, V domains shown)
VH: EVHLVESGGDLVKPGGSLKLSCAASGFTFSSHGMSWVRQTPDKRLEWVATISSGGIYTYHPDSVKGRFSISRDNAKKTLYLQMSSLKSEDTGIYYCTRGQVGNWYFDVWGAGTTVTVSS
VL: DIVITQSPAIMSASPGEKVTINCSASSSVSYMHWFQQTPGTSPKLWIYSTSNLASGVPARFSGSGSGTFYSLTISRMEAEDAATYYCQQRSSYPLTFGAGTKLELK
B3: ch25-G9-G4-C12 (antibody, V domains shown)
VH: B2 VH with H3Q, S52N, I56Y, H60Y, S69T, K77N, G92A, I93M, T97A, V101L
VL: B2 VL with I4M, N22T, T38K, F69S
B4: ch4-E6-E4-B12 (antibody, V domains shown)
VH: EVQLKESGAELVKPGASVKLSCKASGYTFTSHWMHWVKQRPGQGLEWIGEINPSNGRTNYNEKFTSKATLTVDQSSSTAYMQLSSLTSEDSAVYYCARGNLTTVVPFDYWGQGTALTVSS
VL: DIVMTQSPSSLSASLGGKVTITCKASQDINKFIAWYQHKPGKGPRLLIHFTSTLQPGIPSRFSGSGSGRDYSFSISNLEPEDIATYFCLQYDLLLTFGGGTKLEIK
B5: ch2-H8-C9-F7-E2 (antibody, V domains shown)
VH: B4 VH with K5Q, E6Q, S31N, H32Y, T65K, Q74K, N100S, A115T
VL: DIQMTQTPSSLSASLGGKVTITCKASQDINNYIAWYQHKPGKGPRLLIHYTSTLQPGIPSRFSGSGSGRDYSFSISNLEPEDIATYFCLQYDILLTFGGGTKLEK
B6: ch36-F4-H1-D9 (antibody, V domains shown)
VH: EVKLLESGGGLVQPGGSLKLSCAASGFDFSRYWMIWVRQAPEKGLEWIGEINPDSSTINYTPSLKDKFIISRDNAKNTLYLQMSKVRSEDTALYYCARPYYRYDVGYFDVWGAGTTVTVSS
VL: DIVMTQAPKVLLVSAGDRVTISCKASQSVSNAVVWYQQKPGQSPKLLIFYASNRYTGVPDRFTGSGYGTDFTFSISTVQAEDLAVYFCQQDYSSPWTFGGGTKLEIK
B7: ch27-F11-E10-G10 (antibody, V domains shown)
VH: EVQLVESGGGLVQPGGSRKLSCAASGFTFSSFGMHWVRQAPEKGLEWVAYISSGSSTIYYADTVKGRFSISRDNPKNTLFLQMTSLRSEDTAMFYCARSTGTGAMDYWGQGTSVTVSS
VL: DIQMTQTTSSLSASLGDRVTISCRASQDISNYLNWYQQKPDGTVKLLIYYTSRLHSGVPSRFSGSGSGTDYSLTISNLEQEDIATYFCQQGNTLPWTFGGGTKLELK
B8: ch25-E7-A10-H6 (antibody, V domains shown)
VH: B7 VH with S31T, S69T, F94Y
VL: B7 VL with N31K, L106I
B9: ch27-G5-E9-B8 (antibody, V domains shown)
VH: B7 VH with S69T, F94Y
VL: B7 VL with R18S, I21F, Y49S, T93A, L106I
B10: IO-202 (antibody, V domains shown)
VH: EVQLLESGGGLVQPGGSLRLSCAASGIDFSNHYYMYWVRQAPGKGLEWIGSIFSGDSASTYYADSAKGRFTISRDNSKNTLYLQMNSLRAEDTAVYYCARGMSTNDWASDLWGQGTLVTVSS
VL: DIQMTQSPSSLSASVGDRVTITCQASESINSIYLAWYQQKPGKAPKLLIYRASTLASGVPSRFSGSGSGTDFTLTISSLQPEDFATYYCQQSYDWGDVENTFGGGTKVEIK

Key:
human LILRA6 protein = target: T1, human LILRA6 protein (human, UniProt Q6PI73 24-447, limits assumed); experiment: ELISA, LILRA6 protein
T1 construct: protein for ELISA; construct not described; also called hLILRA6 protein
T1 sequence (Q6PI73 24-447 limits assumed): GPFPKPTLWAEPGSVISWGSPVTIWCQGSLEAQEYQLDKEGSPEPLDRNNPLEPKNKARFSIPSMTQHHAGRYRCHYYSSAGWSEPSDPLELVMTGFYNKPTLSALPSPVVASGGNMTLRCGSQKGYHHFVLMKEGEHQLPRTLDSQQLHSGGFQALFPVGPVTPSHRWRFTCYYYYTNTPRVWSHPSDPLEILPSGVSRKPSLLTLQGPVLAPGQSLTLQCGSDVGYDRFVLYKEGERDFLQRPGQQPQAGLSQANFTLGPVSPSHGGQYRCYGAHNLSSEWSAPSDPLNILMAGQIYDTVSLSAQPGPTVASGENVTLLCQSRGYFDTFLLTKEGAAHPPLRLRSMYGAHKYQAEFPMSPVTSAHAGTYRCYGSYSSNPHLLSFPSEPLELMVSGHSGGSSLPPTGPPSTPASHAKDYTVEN

human LILRB4 [1] = target: T2, human LILRB4 (human, UniProt Q8NHJ6 22-448); experiment: cell-based or functional assay
human LILRB4 [2] = target: T2, human LILRB4; experiment: cell-based or functional assay; remark: listed apart in the source
human LILRB4 [3] = target: T2, human LILRB4; experiment: cell-based or functional assay; remark: listed apart in the source
human LILRB3 = target: T3, human LILRB3 (human, UniProt O75022 24-631); experiment: FACS, 293F-hLILRB3 cells
T3 construct: whole, on cells; also called hLILRB3
T3 sequence (O75022 24-631): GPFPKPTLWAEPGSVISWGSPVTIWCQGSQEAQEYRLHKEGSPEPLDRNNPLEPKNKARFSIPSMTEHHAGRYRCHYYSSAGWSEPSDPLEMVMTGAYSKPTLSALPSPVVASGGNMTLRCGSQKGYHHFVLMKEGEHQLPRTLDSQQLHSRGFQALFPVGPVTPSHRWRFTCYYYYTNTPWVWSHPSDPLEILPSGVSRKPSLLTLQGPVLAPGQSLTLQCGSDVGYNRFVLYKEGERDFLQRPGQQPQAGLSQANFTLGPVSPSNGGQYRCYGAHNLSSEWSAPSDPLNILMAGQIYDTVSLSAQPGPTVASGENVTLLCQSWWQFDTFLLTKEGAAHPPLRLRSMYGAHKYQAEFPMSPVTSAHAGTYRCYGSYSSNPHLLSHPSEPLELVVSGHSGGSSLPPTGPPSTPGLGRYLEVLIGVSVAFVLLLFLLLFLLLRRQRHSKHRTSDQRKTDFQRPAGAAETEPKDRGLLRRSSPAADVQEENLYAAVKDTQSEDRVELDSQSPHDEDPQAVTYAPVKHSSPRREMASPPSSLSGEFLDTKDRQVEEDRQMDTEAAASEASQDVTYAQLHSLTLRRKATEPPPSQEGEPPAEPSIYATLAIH
Description: (§1) The protocol for FACS analysis is described as follows: [0438] (a) Cells were harvested by centrifugation at 300 g for 3 mins. […] (b) The cells were washed for 2 times with FACS buffer by centrifuging at 300 g for 3 mins and the supernatant was discarded. [0440] (c) Cell were resuspended and seeded into assay plate (2×10⁵ cells/well) in 50 μl FACS buffer. […] Cells were incubated with antibodies at 4° C. for 1 hour. […] (d) Step (b) was repeated and the cells were resuspended with 100 μl diluted 2nd antibody, incubated at 4° C. for 1 hour in the dark. [0442] (e) Step (b) was repeated and the cells were resuspended with 100 μl FACS buffer. The cells were kept in dark for FACS analysis.

human LILRB4 [4] = target: T2, human LILRB4; experiment: FACS, 293F-hLILRB4 cells
Description: as §1

Binder	binding result (human LILRA6 protein)	Max cell cytotoxicity (%), ADCC on THP-1 cells (human LILRB4 [1]) [%]	ADCP (%) at 133.3 nM, macrophages and MV-4-11 cells (human LILRB4 [2]) [%]	FcγR stimulation (TNF-α, pg/mL) (human LILRB4 [3]) [pg/mL]	Fold change (Compared to isotype) (human LILRB4 [3]) [fold]	binding result (human LILRB3)	EC50 (human LILRB4 [4]) [nM]	Max MFI (human LILRB4 [4]) [MFI]	ELISA(OD450) (human LILRA6 protein)	EC50 (human LILRB3) [nM]	EC50 (nM), ADCC on THP-1 cells (human LILRB4 [1]) [nM]
B1	no binding	13.9	11.8	415	13.1	no binding (tested: up to 66.67 nM)	0.54	47300			
B2		14.5	20.4	308	9.73		1.36	48400	0.32	12.8	
B3		11	24.2	356	11.3	no binding (tested: up to 66.67 nM)	1.55	43300	0.687		
B4		14.6	14.1	266	8.43	no binding (tested: up to 66.67 nM)	1.09	54500	0.353		
B5		31.1	9.35	310	9.82	no binding (tested: up to 66.67 nM)	1.23	41000	0.576		1.38
B6	no binding	17.9	14.8	543	17.2	no binding (tested: up to 66.67 nM)	1.99	48200			
B7	no binding	18.7	16.3	393	12.4	no binding (tested: up to 66.67 nM)	1.52	46200			
B8	no binding	11.7	11	390	12.3	no binding (tested: up to 66.67 nM)	1.4	45000			
B9	no binding	16.4	14.8	394	12.5	no binding (tested: up to 66.67 nM)	1.75	44300			
B10		13.9	21.8	238	7.52	no binding (tested: up to 66.67 nM)	0.016	39700	0.157		248
